Laboratory results reported in patent US10677782B2, “Methods of determining interferon having direct inhibitory effects on tumors and uses thereof” (SUPERLAB FAR EAST LIMITED, priority 2013, dated 2020).

Experiments:
[1] = test system: SW620 tumor cells; assay: Cell viability over 1-6 days, MTT assay; format: cell-based, human; settings: 10 μg/ml
Method: The cell survival rate was evaluated in a standard MTT assay (3-(4,5-dimethylthiazol-2-yl)-2,5-diphenyltetrazolium bromide assay, Sigma, St. Louis, Mo.). For the assay, about 20 μl MTT (at 4 mcg/ml) was added to each well. The cells were incubated at 37° C. for 4 hr. After that, the supernatant of each well was drawn off carefully and then an equal volume (150 microliter) of dimethyl sulfoxide (DMSO) was added to each well and mixed thoroughly on a shaker for 15 min. The absorbance from the plates was read at 595 nm with a Thermo Scientific Microplate Reader (Thermo Fisher Scientific Inc., Lowell, Mass.). The relative cell viability was calculated as follows: Cell viability=(Treated group(OD595) minus blank(OD595))/(Control group(OD595) minus blank(OD595))×100%.

[2] = test system: LRP6 mRNA in H460 cells; assay: qPCR of Wnt-related receptor LRP6; format: cell-based, human; settings: 10 μg/ml, 24 hr; vs Mock
Excerpt: Total mRNA was isolated using TRIZOL Reagent (Invitrogen, Carlsbad, Calif.) according to the manufacturer's instructions. Complementary DNA (cDNA) was synthesized using a RT-PCR Kit (Cat #: FSQ-101, TOYOBO, Japan) according to the manufacturer's instructions and then subjected to qPCR with a SYBR Green PCR kit (Cat #: QPK-201, TOYOBO, Japan). The primers of the four Wnt pathway target genes were as follows: Axin2 sense primer: 5′-[…]-3′ (SEQ ID NO:8) and antisense primer: 5′-[…]-3′ (SEQ ID NO: 9); CD24 sense primer: 5′-[…]-3′ (SEQ ID NO: 10) andantisense primer: 5′-[…]-3′ (SEQ ID NO: 11); Survivin sense primer: 5′-[…]-3′ (SEQ ID NO: 12) and antisense primer: 5′-[…]-3′ (SEQ ID NO: 13) and ID2 sense primer: 5′-[…]-3′ (SEQ ID NO: 14) and antisense primer: 5′-[…]-3′ (SEQ ID NO: 15).
The amplification protocol consisted of incubations at 95° C. for 1 minute, 40 cycles (95° C. for 15 seconds, 60° C. for 15 seconds, 72° C. for 30 seconds). Incorporation of the SYBR Green dye into PCR products was monitored in real time with a Bio-Rad Detection System and subsequently analyzed using Bio-Rad CFX manager 2.1 software. The samples were pooled for each condition and run in duplicate. […]
The regulation of LRP6/FZD6 by rSIFN-co was investigated. […] Results were recorded as relative mRNA level of either LRP6 or FZD6 relative to GAPDH.

[3] = Tolerability and body weight of tumor-bearing mice, Example 4; format: in vivo, BALB/cA nu/nu mice; settings: 0.05 mg/mouse i.t. every other day; day 17; reasons unknown
Method: (§1) Animals were assigned to treatment groups randomly. Initially, all animals were placed in one large animal cage. For assignment to the study, they were later separately housed, with 6 animals per cage per treatment group. Groups 1 and 2 are Control groups in which the animals were each administered the vehicle every other day after the first treatment. […] The animals in Groups 4, 5 and 6 were each given rSIFN-co every other day after the first treatment at 0.15 mg/mouse (Group 4) or 0.10 mg/mouse (Group 5) or 0.05 mg/mouse (Group 6), respectively. Tumor growth was monitored by measuring the length and width of each tumor twice a week during the course of the study. Each animal was also weighed twice a week during the course of the study.
The study was conducted as in Example 3, except as specifically indicated otherwise. Human xenografts for injection into the test animals were first established and prepared in a similar manner as in Example 1, but by inoculating 2.5×10^6 SPC-A4 cells subcutaneously (s.c.) in nude mice and passaging the well-grown tumors twice in nude mice. The 1.5 mm^3 fragments were then used for s.c. implantation into the test animals. The body weight of the animals averaged 22±2 g at dose initiation. In contrast to Example 3, the animals used in this study were all male and the study was conducted over a 21 day treatment period.

[4] = Tolerability and body weight of tumor-bearing mice, Example 3; format: in vivo; settings: 0.05-0.15 mg/mouse i.t. every other day, 28 days
Method: as §1
This study was conducted as in Example 1, except as specifically indicated otherwise. Human colon cancer xenografts were first established and prepared in a similar manner as in Example 1, by inoculating 5×10^6 HT-29 cells subcutaneously into nude mice and passaging the well-grown xenografts twice in nude mice. Then, 1.5 mm^3 fragments were prepared for s.c. implantation into the test animals. The body weight of the animals averaged 20±2 g at dose initiation In contrast to Example 1, the animals used in this study were all female. […]

[5] = test system: Human Cervical Cancer Hela Xenografts; assay: Human cervical cancer Hela xenografts in nude mice (Example 2); format: in vivo; settings: for TV (mm^3, mean ± SD) (D0): day 0, start of treatment; for TV (mm^3, mean ± SD) (D28): day 28
Method: Before commencement of this study, the xenografts were passaged twice in nude mice. Under sterile conditions, well-grown tumors were cut into 1.5 mm^3 fragments and one such fragment was injected by trocar needle into the right flank of each study animal. […] Individual tumor size (length and width) was measured twice per week with microcalipers. Tumor volume (V) was calculated using the formula: V=(length×width^2)/2. Individual relative tumor volume (RTV) was calculated using the formula: RTV=Vt/V0, where Vt is the tumor volume on the day of measurement and V0 is the tumor volume on the day of first treatment. Therapeutic effect of the test article or control article was expressed in terms of TIC (%), using the formula: TIC (%) (mean RTV of the treated group/mean RTV of the control group)×100%; and in terms of % Inhibition, using the formula: % Inhibition=100%−T/C %.
Then 1.5 mm^3 fragments were prepared for s.c. implantation into the animals.

[6] = 0.05 mg/mouse i.t. every other day
[7] = 0.10 mg/mouse i.t. every other day
[8] = 0.15 mg/mouse i.t. every other day

B1: rSIFN-co: Recombinant super-compound interferon; amino acid sequence SEQ ID NO: 1 (same as interferon alfacon-1), encoded by SEQ ID NO: 2, novel tertiary structure (protein)
chain: MCDLPQTHSLGNRRALILLAQMRRISPFSCLKDRHDFGFPQEEFDGNQFQKAQAISVLHEMIQQTFNLFSTKDSSAAWDESLLEKFYTELYQQLNDLEACVIQEVGVEETPLMNVDSILAVKKYFQRITLYLTEKKYSPCAWEVVRAEIMRSFSLSTNLQERLRRKE
modifications: Amino acid sequence of recombinant interferon
cell viability, time dependent effect [1]: strongly decreased cell viability of SW620 cells in a time-dependent manner
relative expression of the LRP6 mRNA [2]: down-regulated to various extents
deaths [3]: one mouse
tolerability: signs of drug toxicity and changes in weight [4]: no signs of drug toxicity and minimal changes in weight
TV (mm^3, mean ± SD) (D0) [5, 6]: 135 ± 26 mm^3
TV (mm^3, mean ± SD) (D28) [5, 6]: 886 ± 232 mm^3
TV (mm^3, mean ± SD) (D0) [5, 7]: 135 ± 28 mm^3
TV (mm^3, mean ± SD) (D28) [5, 7]: 865 ± 186 mm^3
TV (mm^3, mean ± SD) (D0) [5, 8]: 136 ± 25 mm^3
TV (mm^3, mean ± SD) (D28) [5, 8]: 1025 ± 400 mm^3
